The term Kd denotes the constant that tells how readily two partners part at equilibrium. The term koff denotes a measure of how fast the partners let go of each other. As a reminder, the kon is the second-order rate constant of association.

This experiment has as its target recombinant F-protein (respiratory syncytial virus (RSV)) (UniProt P03420). Description: SPR Biacore T-200, antibody captured on protein A chip, F-protein as analyte. In general terms: In SPR one partner is held on a chip, and binding of the other changes the refractive index at the surface.

Chain of recombinant F-protein (respiratory syncytial virus (RSV)) (P03420 whole entry): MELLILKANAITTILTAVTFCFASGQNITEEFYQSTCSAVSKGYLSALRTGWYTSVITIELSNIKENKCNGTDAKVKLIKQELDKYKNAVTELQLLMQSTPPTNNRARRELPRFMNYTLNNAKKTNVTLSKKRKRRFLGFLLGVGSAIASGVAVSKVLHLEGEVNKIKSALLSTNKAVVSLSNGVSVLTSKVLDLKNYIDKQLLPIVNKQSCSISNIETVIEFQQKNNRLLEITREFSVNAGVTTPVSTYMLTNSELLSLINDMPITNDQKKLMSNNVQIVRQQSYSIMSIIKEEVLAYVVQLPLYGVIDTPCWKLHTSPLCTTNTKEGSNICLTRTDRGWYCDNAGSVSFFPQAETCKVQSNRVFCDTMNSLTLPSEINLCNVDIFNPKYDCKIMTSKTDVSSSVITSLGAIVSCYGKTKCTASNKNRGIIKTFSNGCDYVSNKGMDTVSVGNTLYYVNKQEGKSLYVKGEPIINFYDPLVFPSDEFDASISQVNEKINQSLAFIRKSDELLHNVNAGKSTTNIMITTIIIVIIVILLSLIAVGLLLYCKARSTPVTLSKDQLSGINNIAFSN

B1: 12A1 (antibody, V domains shown)
VH: EVQLVESGGGLIQPGGSLRLSCAGSGFTFSSYTMHWVRQAPGKGLEWVSSITGGSSYVDYSASVKGRFTISRDNAQSSLYLQMNSLRAEDTAVYYCARDDYGSGSYSNWFDPWGQGTLVTVSS
VL: QSVLTQPPSVSGAPGQRVTISCTGSSSDIGAGYDVHWYQQLPGTAPKLLIFANTNRPSGVPDRFSGSKSGASASLAITGLQADDEADYYCQSYDRSLSHVFGTGTKVTVLG
With B1, the Kd was 11.4 pM, the koff amounted to 3.18e-05 s⁻¹ and the on-rate (kon) turned out to be 2.8e+06 M⁻¹ s⁻¹.

B2: 3H8 (antibody, V domains shown)
VH: EVQLVESGGGLVKPGGSLRLSCAGSGFTFSSYTMHWVRQAPGKGLEWVSSITGGSSYVDYSASVKGRFTISRDNAQSSLYLQMNSLRAEDTAVYYCARDDYGSGSYSNWFDPWGRGTTVTVSS
VL: QPVLTQPLSASGTPGQRVTISCTGSSSNIGAGYDVHWYQQLPGRAPKLLIFANTNRPSGVPDRFSGSKSGTSASLAITGLQAEDEADYYCQSYDRSLSHVFGTGTKVTVLG
On to B2, for which the Kd turned out to be 3.97 pM, the koff was found to be 6.06e-05 s⁻¹ and the on-rate (kon) was 1.53e+07 M⁻¹ s⁻¹.

B3: 4G1 (antibody, V domains shown)
VH: QVTLKESGGGLVKPGGSLRLSCAASGFRLSSYGMNWVRQAPGKGLEWVSSISASSSFINYADSVRDRFTISRDNAKNSLYLQMNSLRAEDTAVYYCARDDYGSGSYSNWFDPWGQGTLVTVSS
VL: QSVLTQPPSVSGAPGQRVTISCTGNSSNLGAGYDVHWYQQLPGRAPKLLIFANTNRPSGVPDRFSGSKSGASASLAITSLQADDEADYYCQSYDRSLSHVFGTGTKVTVLG
With B3, the Kd was 34.1 pM, the koff stood at 6.02e-05 s⁻¹ and the kon came out at 1.77e+06 M⁻¹ s⁻¹.

B4: #12m (antibody, V domains shown)
VH: EVQLVESGGGLVKPGGSLRLSCAGSGFAFSSYTMHWVRQAPGKGLEWVSSITGGSSYLDYAHSVKGRFTISRDNGQNSLFLQMNSLRTEDTAVYYCARDDYGSGSYSNYFDPWGQGTLVTVSS
VL: QSVLTQPPSVSGAPGQRVTISCTGSSSNIGAGYDVHWYQQVPGTAPKLLIFGSTNRPSGVPDRFSGSKSGASASLAITGLQTEDEADYYCQSYDRSLSHVFGTGTKVTVLG
As to B4, the Kd came out at 6.77 pM, the koff came out at 2.07e-05 s⁻¹ and the kon was 3.06e+06 M⁻¹ s⁻¹.

B5: 2H1 (antibody, V domains shown)
VH: QVTLKESGGGVVQSGRSLRLSCAASGFTFSSYTMHWVRQAPGKGLEWVSSITGGSSYVDYSASVKGRFTISRDNAQSSLYLQMNSLRAEDTAVYYCARDDYGSGSYSNWFDPWGQGTLVTVSS
VL: QSVLTQPPSVSGAPGQRVTISCTGSSSNIGAGYDVHWYQQLPGRAPKLLIYANTNRPSGVADRFSGSKSGASASLAITGLQADDEADYYCQSYDRSLSHVFGTGTKVTVLG
As to B5, the Kd was determined as 3.84 pM, the koff came to 5.74e-05 s⁻¹ and the kon was determined as 1.5e+07 M⁻¹ s⁻¹.

B6: 10E7 (antibody, V domains shown)
VH: EVQLVESGGGLVKPGGSLRLSCAASGFTFTSYRMHWVRQAPGKGLEWVSSITGGGNYIEYADSVKGRFTISRDNAKNSLDLQMNSLRAEDTAIYYCARDMYGLGSYYSPNYFDSWGQGTLVTVSS
VL: QSVLTQPPSVSGAPGQRVTISCTGSSSNIGAGYDVHWYQQLPGRAPKLLIFANTNRPSGVPDRFSGSKSGASASLAITGLQADDEADYYCQSYDRSLSHVFGTGTKVTVLG
In the case of B6, the Kd turned out to be 13.8 pM, the koff was found to be 2.81e-05 s⁻¹ and the kon worked out at 2.03e+06 M⁻¹ s⁻¹.

B7: 12B11 (antibody, V domains shown)
VH: EVQLVESGGGVVQPGRSLRLACAASGFTFNSYAMHWVRQAPGKGLEWVSSITGGSSYVDYSASVKGRFTISRDNAQSSLYLQMNSLRAEDTAVYYCARDMYGLGSYYSPNYFDPWGQGTLVTVSS
VL: SYELTQPPSVSGAPGQRVTISCTGSSSNIGAGYDVHWYQQLPGRAPKLLIFANTNRPSGVPDRFSGSKSGTSASLAITGLQAEDEADYYCQSYDSSLSYVFGTGTKVTVLG
Take B7: the Kd is 11.5 pM, the koff amounted to 2.89e-05 s⁻¹ and the kon was determined as 2.52e+06 M⁻¹ s⁻¹.
